Here are results for six molecules from patent US20070203054A1 (YISSUM RESEARCH DEVELOPMENT COMPANY OF THE HEBREW …, published 2007).

Test [1] has as its target HA of influenza A/Sydney (A/Sydney/5/97-like (H3N2)) on infected cells (influenza A virus A/Sydney/5/97-like (H3N2)).
The target in test [2] is HA of influenza A/Moscow (A/Moscow/10/99-like (H3N2)) on infected cells (influenza A virus A/Moscow/10/99-like (H3N2)).
The target in test [3] is HA of influenza virus New Caledonia (H1N1) on infected cells (influenza A virus New Caledonia (H1N1)).
The target in test [4] is HA of influenza A/Beijing (A/Beijing/262/95-like (H1N1)) on infected cells (influenza A virus A/Beijing/262/95-like (H1N1)).
Test [5] deals with hemagglutinin-neuraminidase of Sendai virus (SV) on infected cells (Sendai virus).
The target of test [6] is HA of influenza virus Yamanashi (B strain) on infected cells (influenza B virus Yamanashi).

Regarding “NKp30-Ig fusion protein (from UniProt O14931 19-135) (Fc fusion)”, the MFI in test [1] amounted to 8; in test [2], 8; in test [3], 10; in test [4], 4.
“NKp44-Ig fusion protein (from UniProt O95944 22-190) (Fc fusion)”: the MFI is 350 in test [5]; 120 in test [1]; 24 in test [2]; 117 in test [6]; 518 in test [3]; 128 in test [4].
As for “NKp46-Ig fusion protein (from UniProt O76036 22-254) (Fc fusion)”, the MFI in test [1] came to 58; in test [2], 20; in test [3], 315; in test [4], 44.
Consider “NKp46D1-Ig fusion protein (membrane distal domain of NKp46 fused to Fc of human IgG1) (from UniProt O76036 22-120) (Fc fusion)”, for which the MFI is 8 in test [5]; 10 in test [1]; 8 in test [2]; 8 in test [6]; 5 in test [3]; 7 in test [4].
For “NKp46D2-Ig fusion protein produced in COS cells (membrane proximal domain of NKp46 fused to Fc of human IgG1) (from UniProt O76036 121-254) (Fc fusion)”, the MFI in test [5] turned out to be 95; in test [1], 100; in test [2], 50; in test [6], 51; in test [3] it was 420; in test [4] it was 77.

B1: CD99-Ig fusion protein (Fc fusion)
chain: DGGFDLSDALPDNENKKPTAIPKKPSAGDDFDLGDAVVDGENDDPRPPNPPKPMPNPNPNHPSSSGSFSDADLADGVSGGEGKGGSDGGGSHRKEGEEAD
For the molecule B1, the MFI worked out at 0.5 in test [5]; 1 in test [1]; 0 in test [2]; 0 in test [6]; 0 in test [3]; 0 in test [4].
